Experimental data as given in PMC2132604.

Target: p130^Cas, endogenous in CHO cells (Chinese hamster (endogenous in CHO))
Test: co-IP

reduction of association relative to wild-type FAK (densitometry): 50%
Substance: FAK P712/715A double point mutant, epitope-tagged, expressed from pCDM8-P712/715A in CHO cells (from UniProt Q00944 1-1053) (enzyme)
